Test results from patent US10941182 (Amgen, dated 2021).
Starred links: 1 amine or outer side, 2 acyl side, 3 side chain; linkers in the order of their positions; H or OH if unused. Non-standard residues stand in square brackets, D forms with d. Primed or numbered codes have the meaning given here. *: point of attachment. AC4Abu = α-carboxy-4-aminobutyric acid, O=C(C(CCN[*:1])C(=O)[*:3])[*:2]; dBip = N[C@H](Cc1ccc(-c2ccccc2)cc1)C(=O)O; Oic = O=C(O)[C@@H]1C[C@@H]2CCCC[C@@H]2N1; Phe(4-Cl) = N[C@@H](Cc1ccc(Cl)cc1)C(=O)O; Phe(4-I) = N[C@@H](Cc1ccc(I)cc1)C(=O)O; γGlu = O=C(O)[C@H](CCC(=O)[*:2])N[*:1]; d(β3hF) = N[C@@H](CC(=O)O)Cc1ccccc1; NMeR = CN[C@@H](CCCNC(=N)N)C(=O)O; Palmitoyl = CCCCCCCCCCCCCCCC(=O)*; Tridecanoyl = CCCCCCCCCCCCC(=O)*; hArg = N=C(N)NCCCC[C@H](N)C(=O)O; β3hF = N[C@H](CC(=O)O)Cc1ccccc1; Cha = N[C@@H](CC1CCCCC1)C(=O)O; NMeL = CN[C@@H](CC(C)C)C(=O)O; αMeP = C[C@@]1(C(=O)O)CCCN1; AC4Abu″ = not defined here; β3hP = O=C(O)C[C@@H]1CCCN1; αMeS = C[C@](N)(CO)C(=O)O; Nle = CCCC[C@H](N)C(=O)O; AMEF = not defined here; Deg = CCC(N)(CC)C(=O)O; AEEA = NCCOCCOCC(=O)O; Aib = CC(C)(N)C(=O)O

T1: rat APJ receptor (rat, UniProt Q9JHG3 1-377)
T1 sequence (looked up): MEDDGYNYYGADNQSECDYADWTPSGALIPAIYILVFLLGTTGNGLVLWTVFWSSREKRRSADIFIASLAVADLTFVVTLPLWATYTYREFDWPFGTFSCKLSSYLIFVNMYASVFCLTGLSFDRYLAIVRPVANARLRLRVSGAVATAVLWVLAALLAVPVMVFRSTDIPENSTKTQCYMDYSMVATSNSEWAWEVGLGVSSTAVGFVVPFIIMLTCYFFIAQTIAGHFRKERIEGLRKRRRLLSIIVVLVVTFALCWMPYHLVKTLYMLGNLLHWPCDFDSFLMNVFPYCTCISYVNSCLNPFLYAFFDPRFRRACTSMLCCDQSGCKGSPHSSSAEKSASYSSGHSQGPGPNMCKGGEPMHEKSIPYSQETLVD

T2: rat APJ receptor (rat, UniProt Q9JHG3 1-377)
T2 sequence (looked up): T1 sequence (looked up)

T3: human APJ receptor (human, UniProt P35414 1-380)
T3 sequence (looked up): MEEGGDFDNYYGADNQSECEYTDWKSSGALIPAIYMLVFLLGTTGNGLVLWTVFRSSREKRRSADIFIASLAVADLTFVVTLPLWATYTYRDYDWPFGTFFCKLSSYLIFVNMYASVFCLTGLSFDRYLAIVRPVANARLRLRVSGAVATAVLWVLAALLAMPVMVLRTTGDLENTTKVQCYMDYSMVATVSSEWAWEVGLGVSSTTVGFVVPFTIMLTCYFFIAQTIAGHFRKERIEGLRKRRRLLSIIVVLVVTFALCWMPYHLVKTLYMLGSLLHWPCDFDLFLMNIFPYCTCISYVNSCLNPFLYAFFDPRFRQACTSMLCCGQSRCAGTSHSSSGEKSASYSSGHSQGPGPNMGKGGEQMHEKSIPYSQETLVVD

T4: human APJ receptor (human, UniProt P35414 1-380)
T4 sequence (looked up): T3 sequence (looked up)

B1: SEQ ID NO: 81 (peptide)
peptide: Ac-[hArg][dR]Q[hArg]P[dR][NMeL]EHKG[Oic][Phe(4-I)]P[dBip]-OH
SMILES: CC(=O)N[C@@H](CCCCNC(=N)N)C(=O)N[C@H](CCCNC(=N)N)C(=O)N[C@@H](CCC(N)=O)C(=O)N[C@@H](CCCCNC(=N)N)C(=O)N1CCC[C@H]1C(=O)N[C@H](CCCNC(=N)N)C(=O)N(C)[C@@H](CC(C)C)C(=O)N[C@@H](CCC(=O)O)C(=O)N[C@@H](Cc1c[nH]cn1)C(=O)N[C@@H](CCCCN)C(=O)NCC(=O)N1[C@H](C(=O)N[C@@H](Cc2ccc(I)cc2)C(=O)N2CCC[C@H]2C(=O)N[C@H](Cc2ccc(-c3ccccc3)cc2)C(=O)O)C[C@@H]2CCCC[C@@H]21
B2: SEQ ID NO: 79 (peptide)
peptide: Ac-[hArg][dR]Q[hArg]PE[NMeL]SHKG[Oic][Phe(4-I)]P[dBip]-OH
SMILES: CC(=O)N[C@@H](CCCCNC(=N)N)C(=O)N[C@H](CCCNC(=N)N)C(=O)N[C@@H](CCC(N)=O)C(=O)N[C@@H](CCCCNC(=N)N)C(=O)N1CCC[C@H]1C(=O)N[C@@H](CCC(=O)O)C(=O)N(C)[C@@H](CC(C)C)C(=O)N[C@@H](CO)C(=O)N[C@@H](Cc1c[nH]cn1)C(=O)N[C@@H](CCCCN)C(=O)NCC(=O)N1[C@H](C(=O)N[C@@H](Cc2ccc(I)cc2)C(=O)N2CCC[C@H]2C(=O)N[C@H](Cc2ccc(-c3ccccc3)cc2)C(=O)O)C[C@@H]2CCCC[C@@H]21
B3: Apelin polypeptide SEQ ID NO: 498 (peptide)
peptide: Tridecanoyl-[γGlu][AEEA][AEEA][dQ]RP[NMeR][Cha]SHKG[αMeP][Nle][Aib][Phe(4-Cl)]-OH
SMILES: CCCCCCCCCCCCC(=O)N[C@@H](CCC(=O)NCCOCCOCC(=O)NCCOCCOCC(=O)N[C@H](CCC(N)=O)C(=O)N[C@@H](CCCNC(=N)N)C(=O)N1CCC[C@H]1C(=O)N(C)[C@@H](CCCNC(=N)N)C(=O)N[C@@H](CC1CCCCC1)C(=O)N[C@@H](CO)C(=O)N[C@@H](Cc1c[nH]cn1)C(=O)N[C@@H](CCCCN)C(=O)NCC(=O)N1CCC[C@@]1(C)C(=O)N[C@@H](CCCC)C(=O)NC(C)(C)C(=O)N[C@@H](Cc1ccc(Cl)cc1)C(=O)O)C(=O)O
B4: Apelin polypeptide SEQ ID NO: 551 (peptide)
peptide: Tridecanoyl-[γGlu][AEEA][AEEA][dQ]RP[NMeR][Cha]SHKG[αMeP][Nle][Phe(4-Cl)]-OH
SMILES: CCCCCCCCCCCCC(=O)N[C@@H](CCC(=O)NCCOCCOCC(=O)NCCOCCOCC(=O)N[C@H](CCC(N)=O)C(=O)N[C@@H](CCCNC(=N)N)C(=O)N1CCC[C@H]1C(=O)N(C)[C@@H](CCCNC(=N)N)C(=O)N[C@@H](CC1CCCCC1)C(=O)N[C@@H](CO)C(=O)N[C@@H](Cc1c[nH]cn1)C(=O)N[C@@H](CCCCN)C(=O)NCC(=O)N1CCC[C@@]1(C)C(=O)N[C@@H](CCCC)C(=O)N[C@@H](Cc1ccc(Cl)cc1)C(=O)O)C(=O)O
B5: Apelin polypeptide SEQ ID NO: 417 (peptide)
peptide: Tridecanoyl-[AC4Abu][AEEA][AEEA]QRP[NMeR][Cha]SHKG[β3hP][Nle]P[Phe(4-Cl)]-OH
SMILES: CCCCCCCCCCCCC(=O)NCCC(C(=O)O)C(=O)NCCOCCOCC(=O)NCCOCCOCC(=O)N[C@@H](CCC(N)=O)C(=O)N[C@@H](CCCNC(=N)N)C(=O)N1CCC[C@H]1C(=O)N(C)[C@@H](CCCNC(=N)N)C(=O)N[C@@H](CC1CCCCC1)C(=O)N[C@@H](CO)C(=O)N[C@@H](Cc1c[nH]cn1)C(=O)N[C@@H](CCCCN)C(=O)NCC(=O)N1CCC[C@H]1CC(=O)N[C@@H](CCCC)C(=O)N1CCC[C@H]1C(=O)N[C@@H](Cc1ccc(Cl)cc1)C(=O)O
B6: Apelin polypeptide SEQ ID NO: 379 (peptide)
peptide: Tridecanoyl-[γGlu][AEEA][AEEA]QRP[NMeR][Cha]SHKG[Oic][Nle]P[β3hF]-OH
SMILES: CCCCCCCCCCCCC(=O)N[C@@H](CCC(=O)NCCOCCOCC(=O)NCCOCCOCC(=O)N[C@@H](CCC(N)=O)C(=O)N[C@@H](CCCNC(=N)N)C(=O)N1CCC[C@H]1C(=O)N(C)[C@@H](CCCNC(=N)N)C(=O)N[C@@H](CC1CCCCC1)C(=O)N[C@@H](CO)C(=O)N[C@@H](Cc1c[nH]cn1)C(=O)N[C@@H](CCCCN)C(=O)NCC(=O)N1[C@H](C(=O)N[C@@H](CCCC)C(=O)N2CCC[C@H]2C(=O)N[C@H](CC(=O)O)Cc2ccccc2)C[C@@H]2CCCC[C@@H]21)C(=O)O
B7: Apelin polypeptide SEQ ID NO: 415 (peptide)
peptide: Tridecanoyl-[AC4Abu][AEEA][AEEA]QRP[NMeR][Cha]SHKG[Deg][Nle]P[Phe(4-Cl)]-OH
SMILES: CCCCCCCCCCCCC(=O)NCCC(C(=O)O)C(=O)NCCOCCOCC(=O)NCCOCCOCC(=O)N[C@@H](CCC(N)=O)C(=O)N[C@@H](CCCNC(=N)N)C(=O)N1CCC[C@H]1C(=O)N(C)[C@@H](CCCNC(=N)N)C(=O)N[C@@H](CC1CCCCC1)C(=O)N[C@@H](CO)C(=O)N[C@@H](Cc1c[nH]cn1)C(=O)N[C@@H](CCCCN)C(=O)NCC(=O)NC(CC)(CC)C(=O)N[C@@H](CCCC)C(=O)N1CCC[C@H]1C(=O)N[C@@H](Cc1ccc(Cl)cc1)C(=O)O
B8: Apelin polypeptide SEQ ID NO: 545 (peptide)
peptide: Tridecanoyl-[γGlu][AEEA][AEEA][dQ]RP[NMeR][Cha]SHKG[αMeP][Nle][β3hP][Phe(4-Cl)]-OH
SMILES: CCCCCCCCCCCCC(=O)N[C@@H](CCC(=O)NCCOCCOCC(=O)NCCOCCOCC(=O)N[C@H](CCC(N)=O)C(=O)N[C@@H](CCCNC(=N)N)C(=O)N1CCC[C@H]1C(=O)N(C)[C@@H](CCCNC(=N)N)C(=O)N[C@@H](CC1CCCCC1)C(=O)N[C@@H](CO)C(=O)N[C@@H](Cc1c[nH]cn1)C(=O)N[C@@H](CCCCN)C(=O)NCC(=O)N1CCC[C@@]1(C)C(=O)N[C@@H](CCCC)C(=O)N1CCC[C@H]1CC(=O)N[C@@H](Cc1ccc(Cl)cc1)C(=O)O)C(=O)O
B9: Apelin polypeptide SEQ ID NO: 377 (peptide)
peptide: Tridecanoyl-[γGlu][AEEA][AEEA][dQ]RP[NMeR][Cha]SHKG[Oic][Nle]P[Phe(4-Cl)]-OH
SMILES: CCCCCCCCCCCCC(=O)N[C@@H](CCC(=O)NCCOCCOCC(=O)NCCOCCOCC(=O)N[C@H](CCC(N)=O)C(=O)N[C@@H](CCCNC(=N)N)C(=O)N1CCC[C@H]1C(=O)N(C)[C@@H](CCCNC(=N)N)C(=O)N[C@@H](CC1CCCCC1)C(=O)N[C@@H](CO)C(=O)N[C@@H](Cc1c[nH]cn1)C(=O)N[C@@H](CCCCN)C(=O)NCC(=O)N1[C@H](C(=O)N[C@@H](CCCC)C(=O)N2CCC[C@H]2C(=O)N[C@@H](Cc2ccc(Cl)cc2)C(=O)O)C[C@@H]2CCCC[C@@H]21)C(=O)O

These binders were tested against T1, rat APJ receptor (assay: cell-based or functional assay).

EC50 Rat APJ Receptor [pM] | Binder
388 | XXXQRPRLSHKGPXPF ({Acetyl-NH}[AC4Abu][Aeea][Aeea]QRP[NMeArg]LSHKGP[Nle]P[4-Cl-F]{COOH}) [SEQ ID NO: 88]
4480 | Ac-[hArg]Q[hArg]P[NMeR][Cha]SHKG[Oic][Nle]P[Phe(4-Cl)]-OH [SEQ ID NO: 60]
70600 | B1
341 | B2
994 | Ac-[hArg]EQ[hArg]P[dR][NMeL]SHKG[Oic][Phe(4-I)]P[dBip]-OH [SEQ ID NO: 76]

These binders were tested against T2, rat APJ receptor (assay: cell-based or functional assay).

EC50 Rat APJ Receptor (GTPγS assay) [nM] | Binder
0.138 | B3
1.15 | B4
8.1 | B5
8.38 | B6
4.01 | B7
3.7 | B8
0.447 | B9

These binders were tested against T3, human APJ receptor (assay: cell-based or functional assay).

EC50 Human APJ Receptor (GTPγS assay) [nM] | Binder
0.0299 | B3
0.235 | B4
5.99 | B5
7.52 | B6
3.92 | B7
1.3 | B8
0.388 | B9

What follows are binders tested against T4, human APJ receptor (assay: cell-based or functional assay).

EC50 Human APJ Receptor [pM] | Binder
37.5 | XXXQRPRLSHKGPXPF ({hexanoyl}[AC4Abu][Aeea][Aeea]QRP[NMeArg]LSHKGP[Nle]P[4-Cl-F]{COOH}) [SEQ ID NO: 492]
307 | Palmitoyl-[AC4Abu″][AEEA][AEEA][dQ]RP[NMeR][Cha]SHKG[Oic][Nle]P[AMEF]-OH (reading uncertain) [SEQ ID NO: 606]
220 | XXXQRPRLSHKGPXPF ({Acetyl-NH}[AC4Abu][Aeea][Aeea]QRP[NMeArg]LSHKGP[Nle]P[4-Cl-F]{COOH}) [SEQ ID NO: 88]
22.1 | XXXQRPRLSHKGPXPF ({Decanoyl}[AC4Abu][Aeea][Aeea]QRP[NMeArg]LSHKGP[Nle]P[4-Cl-F]{COOH}) [SEQ ID NO: 494]
224 | Ac-[hArg]Q[hArg]P[NMeR][Cha]SHKG[Oic][Nle]P[Phe(4-Cl)]-OH [SEQ ID NO: 60]
83800 | B1
678 | B2
1840 | Ac-[hArg]EQ[hArg]P[dR][NMeL]SHKG[Oic][Phe(4-I)]P[dBip]-OH [SEQ ID NO: 76]
332 | Palmitoyl-[AC4Abu″][AEEA][AEEA][dQ]RP[NMeR][Cha][αMeS]HKG[Oic][Nle][β3hP][d(β3hF)]-OH (reading uncertain) [SEQ ID NO: 642]
